Measurements published in patent US8178581B2, “Production of peracids using an enzyme having perhydrolysis activity” (E. I. du Pont de Nemours and Company, priority 2005, dated 2012).

B1: Novozymes Lipolase 100 L type EX: commercial lipase, source Thermomyces lanuginosus (Novozymes) (protein, UniProt O59952 23-291, looked up)
Lipase: EVSQDLFNQFNLFAQYSAAAYCGKNNDAPAGTNITCTGNACPEVEKADATFLYSFEDSGVGDVTGFLALDNTNKLIVLSFRGSRSIENWIGNLNFDLKEINDICSGCRGHDGFTSSWRSVADTLRQKVEDAVREHPDYRVVFTGHSLGGALATVAGADLRGNGYDIDVFSYGAPRVGNRAFAEFLTVQTGGTLYRITHTNDIVPRLPPREFGYSHSSPEYWIKSGTLVPVTRNDIVKIEGIDATGGNNQPNIPDIPAHLWYFGLIGTCL
B2: Novozymes Lipozyme TL 100 L: commercial lipase, source Thermomyces lanuginosus (Novozymes) (protein, UniProt O59952 23-291, looked up)
Lipase: EVSQDLFNQFNLFAQYSAAAYCGKNNDAPAGTNITCTGNACPEVEKADATFLYSFEDSGVGDVTGFLALDNTNKLIVLSFRGSRSIENWIGNLNFDLKEINDICSGCRGHDGFTSSWRSVADTLRQKVEDAVREHPDYRVVFTGHSLGGALATVAGADLRGNGYDIDVFSYGAPRVGNRAFAEFLTVQTGGTLYRITHTNDIVPRLPPREFGYSHSSPEYWIKSGTLVPVTRNDIVKIEGIDATGGNNQPNIPDIPAHLWYFGLIGTCL

Experiment: Perhydrolysis of triacetin with hydrogen peroxide; peracetic acid measured by HPLC method of Karst et al.
Type: biochemical
Conditions: Table 14: triacetin 250 mM, H2O2 1.0 M, pH 6.5, 25° C., 50 μg/mL of commercial lipase
Method: Determination of the concentration of peracetic acid in the reaction mixture was performed according to the method described by Karst et al. Aliquots (0.250 mL) of the reaction mixture were removed at 10 min and 30 min and filtered using an Ultrafree® MC-filter unit (30,000 Normal Molecular Weight Limit (NMWL), Millipore cat #UFC3LKT 00) by centrifugation for 2 min at 12,000 rpm; removal of the protein component of the aliquot by filtration terminated the reaction. An aliquot (0.100 mL) of the resulting filtrate was transferred to 1.5-mL screw cap HPLC vial (Agilent Technologies, Palo Alto, Calif.; #5182-0715) containing 0.300 mL of deionized water, then 0.100 mL of 20 mM MTS (methyl-p-tolyl-sulfide) in acetonitrile was added, the vials capped, and the contents briefly mixed prior to a 10 min incubation at ca. 25° C. in the absence of light. To each vial was then added 0.400 mL of acetonitrile and 0.100 mL of a solution of triphenylphosphine (TPP, 40 mM) in acetonitrile, the vials re-capped, and the resulting solution mixed and incubated at ca. 25° C. for 30 min in the absence of light. To each vial was then added 0.100 mL of 10 mM N,N-diethyl-m-toluamide (DEET; HPLC external standard) and the resulting solution analyzed by HPLC as described below.
Supelco Discovery C8 column (10-cm×4.0-mm, 5 μm) (cat. #569422-U) w/precolumn Supelco Supelguard Discovery C8 (Sigma-Aldrich; cat #59590-U); 10 microliter injection volume; gradient method with CH3CN (Sigma-Aldrich; #270717) and deionized H2O at 1.0 mL/min and ambient temperature: […]
An extract of E. coli UM2/pSW186 transformant (20 mg total protein/mL extract, prepared as described in Example 21) was employed in 1.0 mL perhydrolysis reactions (run as described in Example 21) containing triacetin (40 mM or 100 mM), hydrogen peroxide (40 mM or 100 mM) and extract total protein (0.1 mg/mL or 1.0 mg/mL) in phosphate buffer (Pi, 100 mM, 200 mM or 300 mM) at pH 6.5 or 7.5 at 25° C. each reaction (Table 11).
(§1) Separate 1.0 mL reactions containing triacetin (250 mM), hydrogen peroxide (1.0 M) and 50 μg of extract total protein in 50 mM phosphate buffer (pH 6.5) were run at 25° C. with each transformant extract. […] The concentration of peracetic acid in the reaction mixtures (Table 12) was determined according to the method of Karst et al. as described in Example 2.
as §1, with “1-mL” for “1.0 mL”, “protein from a cell extract (prepared as described above)” for “protein”, “C.” for “C. with each transformant extract.”, “13)” for “12)”, “al.” for “al. as”, “2. […]” for “2.”

| Molecule | PAA (ppm); 5 min | PAA (ppm); 30 min |
| --- | --- | --- |
| B1 | 10 ppm | 0 ppm |
| B2 | 125 ppm | 370 ppm |
